“Also recorded” adds a separate entry of the source.
B1: Trichoderma reesei Cel7A (TrCel7A): endoglycosidase H (protein)
parent chain: MYRKLAVISAFLATARAQSACTLQSETHPPLTWQKCSSGGTCTQQTGSVVIDANWRWTHATNSSTNCYDGNTWSSTLCPDNETCAKNCCLDGAAYASTYGVTTSGNSLSIGFVTQSAQKNVGARLYLMASDTTYQEFTLLGNEFSFDVDVSQLPCGLNGALYFVSMDADGGVSKYPTNTAGAKYGTGYCDSQCPRDLKFINGQANVEGWEPSSNNANTGIGGHGSCCSEMDIWEANSISEALTPHPCTTVGQEICEGDGCGGTYSDNRYGGTCDPDGCDWNPYRLGNTSFYGPGSSFTLDTTKKLTVVTQFETSGAINRYYVQNGVTFQQPNAELGSYSGNELNDDYCTAEEAEFGGSSFSDKGGLTQFKKATSGGMVLVMSLWDDYYANMLWLDSTYPTNETSSTPGAVRGSCSTSSGVPAQVESQSPNAKVTFSNIKFGPIGSTGNPSGGNPPGGNRGTTTTRRPATTTGSSPGPTQSHYGQCGGIGYSGPTVCASGTTCQVLNPYYSQCL
B2: Trichoderma reesei Cel7A (TrCel7A): N270QAo (protein)
parent chain: B1 parent chain
B3: Trichoderma reesei Cel7A (TrCel7A): ΔN-glycTr (protein)
parent chain: B1 parent chain
B4: Trichoderma reesei Cel7A (TrCel7A): N384QAo (protein)
parent chain: B1 parent chain
B5: Trichoderma reesei Cel7A (TrCel7A): ΔN-glycAo (protein)
parent chain: B1 parent chain
B6: Trichoderma reesei Cel7A (TrCel7A): N45QAo (protein)
parent chain: B1 parent chain

Legend:
[1] = invMM kinetics, 12 g/L Avicel; details: glycan lost; control: untreated TrCel7A CD (no linker, no CBM)
DSC = details: glycan lost
[2] = pNP-Lac activity after 1 h at Tm−5 °C; details: glycan lost
[3] = convMM kinetics, 50 °C, 1 h, reducing ends; details: glycan lost; control: WTAo
[4] = invMM kinetics (enzyme excess), 50 °C, 1 h; details: glycan lost; control: WTAo

| Protein | stability_or_folding, Tm (DSC; control: WTAo) | stability_or_folding, other: residual activity ([2]; control: WTAo) | enzymatic_activity, other: convVmax/E0 (kcat) [3] | also measured |
| --- | --- | --- | --- | --- |
| B1 | – | – | – | enzymatic_activity [1]: increases |
| B2 | decreases, 66.9 vs 67.9 | no change, 60 ± 3 vs 57 ± 1 | – | – |
| B3 | – | – | – | stability_or_folding, Tm (DSC; control: WTTr): decreases, 65.2 vs 67.9; stability_or_folding, other: residual activity ([2]; control: WTTr): no change, 44 ± 1 vs 45 ± 2 |
| B4 | decreases, 66.1 vs 67.9 | no change, 57 ± 3 vs 57 ± 1 | decreases, 0.34 ± 0.01 vs 0.48 ± 0.02; also recorded: decreases, 1.01 ± 0.03 vs 1.46 ± 0.14 | – |
| B5 | decreases, 65.0 vs 67.9 | decreases, 41 ± 2 vs 57 ± 1 | – | – |
| B6 | decreases, 67.4 vs 67.9 | decreases, 38 ± 2 vs 57 ± 1 | no change, 1.33 ± 0.09 vs 1.46 ± 0.14 | enzymatic_activity, other: invVmax/S0 [4]: increases, 0.52 ± 0.02 vs 0.45 ± 0.02 |

From publication PMC7412794
